We go through 20 sequences from the nanobody polyreactivity screen of Harvey et al. (2022).

A short description of this data set: yeast display, Sf9 membrane polyspecificity reagent, FACS + sequencing; frameworks hold sequencing errors. A digest of the protocol: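 Polyreactivity labels are assigned by the sorting gate from which each nanobody was recovered. The gates were low and high (top ~1%), set on anti-HA fluorescence for expression and streptavidin fluorescence for reagent binding. Before sorting, galactose-induced (36–48 hours) yeast display cells were stained for 1 hour at 4 °C with 10% biotinylated, detergent-solubilized Sf9 membrane reagent.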
With “QVQLVESGGGLVQAGGSLRLSCAASGLIFSSNAMGWYRQAPGKERELVAAISRRGANTYYADSVKGRFTISRDNAKNTVYLQMNSLKPQDTAVYYCAKRYVGRGTSYQDYYWGQGTQVTVSS”, the “polyreactivity (PSR sort gate)” value is “high polyreactivity”.
Under “QVQLVESGGGLVQAGGSLRLSCAASGLIFSSYAMGLNRQAPGKEREFVAAISRTGGITYYADSVKGRFTISRDYAKNTVYLQMNSLKPEDTAVYYCNARWYDPTLKVGYWGQVTQVTVSS” stands “high polyreactivity”; under “QVQLVESGGGLVQAGGSLRLSCAASGLIFSSYAMGWYRQAPGKERELVAAISRSGGRTYYADSVKGRFTISRDNAKNTVYLQMNSLKPEDTAVYYCAADRFRSGLDRPEMDYWGQGTQVTVSS”, “high polyreactivity”.
To “QVQLVESGGGLVQAGGSLRLSCAASGLIFSYKTMGWYRQAPGKERELVAAITSGGRTYYADSVKGRFTISRDNAKNTVYLQMNSLKPEDTAVYYCAVLSKWRYDYWGQGTQVTVSS” belongs “high polyreactivity”; to “QVQLVESGGGLVQAGGSLRLSCAASGLIFSYNAMGWYRQAPGKERELVAAISYSGGSTYYADSVKGRFTISRDNAKNTVYLQMNSLKPEDTAVYYCAAVLSPDFYYWGQGTQVTVSS”, “high polyreactivity”; to “QVQLVESGGGLVQAGGSLRLSCAASGLIFSYNAMGWYRQAPGKVRELVATSRRVGSTHYADSVKGRFTISRDNAKNTVYLPMNSLKPEDTAVYDCAARSLRYGRGMYYWGQGTQGTVSS”, “high polyreactivity”.
Under “QVQLVESGGGLVQAGGSLRLSCAASGLIFSYYAMGWYRQAPGKERELVAAISRGGSTNYADSVKGRFTISRDDAKNTVYLQMNSLKPEDTAVYYCAARWQWLNGYYYWGQGTQVTVSS” stands “high polyreactivity”.
As to “QVQLVESGGGLVQAGGSLRLSCAASGLIFTGNVMGWYRQAPGKERELVAAISRSGGRTYYADSVKGRFTISRDNAKNTVYLQMNSLKPEDTAVYYCNKVSPERVYYGSYFRYYYWGQGTQVTVSS”, the “polyreactivity (PSR sort gate)” value is reported as “high polyreactivity”.
Under “QVQLVESGGGLVQAGGSLRLSCAASGLIFTVYAMGWYRQAPGKERELVAAISGTGGSTYYADSVKGRFTISRDNAKNTVYLQMNSLIPEDTAVYYCAAVPIIRLATTSSSRGDYWGQGTQVTVSS” stands “low polyreactivity”.
Consider “QVQLVESGGGLVQAGGSLRLSCAASGLIFTYYAMGWYRQAPGKERELVAAISSSGVNTYYADSVKGRFTISRDNAKNTVYLQMNSLKPEDTAVYYCAAELQPSPVGGIIQYGFDYWGQGTPVTVSS”, for which the “polyreactivity (PSR sort gate)” value was “low polyreactivity”.
To “QVQLVESGGGLVQAGGSLRLSCAASGLIFVANAMGWYRQAPGKERELVAAISRSGGITYYADSVKGRFTISRDNAKNTVYLQMNSLKPQDTAVYYCAKTLPSNGHYDYWGQGTQVTVSS” belongs “low polyreactivity”; to “QVQLVESGGGLVQAGGSLRLSCAASGLIFVDNAMGLYRQAPGKERELVAAIDSGGSTNYADSVKGRFTISRDNAKTTVYLQMNSLNPEDTAVYYCAADWIYAPWYYQESVEYYYWGQGTQVTVSS”, “low polyreactivity”.
Under “QVQLVESGGGLVQAGGSLRLSCAASGLIFVDNAMGWYRPAPGKEREVVAAIDSGGSTNYADSVKGRFTISRDNAKNTVYLQMNSLKPEDTAVYYCAADWIYAPWYYQESVEYYYWGQGTQVTVSS” stands “low polyreactivity”; under “QVQLVESGGGLVQAGGSLRLSCAASGLIFVFYAMGWYRQAPGKERELVAAISRSGTSTYADSVKGRFTISRDNAKNTVYLQMNSLKPEDTAVYYCNAYRYYSPYGYWGQGTQVTVSS”, “low polyreactivity”; under “QVQLVESGGGLVQAGGSLRLSCAASGLIFVKYAMGWYRQAPGKERELVADITSTGGSTYYADSVKGRFTISRDNAKNTVYLQMNSLKPEDTAVYYCATDYGYYDYWGQGTQVTVSS”, “low polyreactivity”.
To “QVQLVESGGGLVQAGGSLRLSCAASGLIFVNAMGWYRQAPGKEREFVAAITYSTGSTYYADSVKGRFTISRDNAKNTVYLQMNRLKPEDTAVYYCAKDRSGHGTERDYWGQGTQVTVSS” belongs “low polyreactivity”; to “QVQLVESGGGLVQAGGSLRLSCAASGLIFVRYAMGWYRQAPGKERELVAAISRGGTTYYADSVKGRFTISRDNAKNTVYLQMNSLKPEDTAVYYCAVGIRYSKDYYYWGQGTQVTVSS”, “high polyreactivity”; to “QVQLVESGGGLVQAGGSLRLSCAASGLIFVSNAMGWYRQAPGKERELVAAISWSGSRTYYADSVKGRFTISRDNAKNTVYLQMNSLKPEDTAVYYCNAVRRGLPVVGAYDYWGQGTQVTVSS”, “high polyreactivity”.
On to “QVQLVESGGGLVQAGGSLRLSCAASGLIFVSYAMGWYRQAPGKERELVAAISSGGSTYYADSVKGRFTISRDNAKNTVYLQMNSLKPEDTAVYYCAAEYVFRGYVGYDYWGQGTQVTVSS”, for which the “polyreactivity (PSR sort gate)” value is listed as “low polyreactivity”.
To “QVQLVESGGGLVQAGGSLRLSCAASGLIFWAYAMGWYRQAPGKERELVAAISWSGARTYYADSVKGRFTISRDNAKNTVYLQMNILKPEDTAVYYCAAGLSSSSSGYEGDYWGLGTQVTVSS” belongs “high polyreactivity”.
